Reference: patent US20250002605A1 (WUHAN YZY BIOPHARMA, published 2025)

T1: human EpCAM on the cell surface (human, UniProt P16422 24-314)
T1 sequence (looked up): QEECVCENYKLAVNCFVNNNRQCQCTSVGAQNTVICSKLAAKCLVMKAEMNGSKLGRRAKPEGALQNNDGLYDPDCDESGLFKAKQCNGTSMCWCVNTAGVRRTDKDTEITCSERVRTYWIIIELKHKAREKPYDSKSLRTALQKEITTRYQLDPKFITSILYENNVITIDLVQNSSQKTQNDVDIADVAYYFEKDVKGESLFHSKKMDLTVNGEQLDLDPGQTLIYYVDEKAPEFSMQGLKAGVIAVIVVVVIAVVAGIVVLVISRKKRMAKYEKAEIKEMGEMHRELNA

T2: human EpCAM antigen (SB, Cat: 10694-H08H) (human, UniProt P16422 24-265)
T2 construct: Bought antigen immobilised on a CM5 chip
T2 sequence (looked up): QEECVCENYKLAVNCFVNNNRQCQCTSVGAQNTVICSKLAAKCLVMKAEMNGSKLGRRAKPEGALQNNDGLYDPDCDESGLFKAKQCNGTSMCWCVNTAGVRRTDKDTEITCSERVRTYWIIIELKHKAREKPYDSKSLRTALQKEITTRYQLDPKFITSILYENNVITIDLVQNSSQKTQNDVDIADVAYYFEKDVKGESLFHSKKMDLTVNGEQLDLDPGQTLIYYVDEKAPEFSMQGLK

B1: M701A (bispecific antibody, human IgG1, kappa)
light: ELVMTQSPSSLTVTAGEKVTMSCKSSQSLLNSGNQKNYLTWYQQKPGQPPKLLIYWASTRESGVPDRFTGSGSGTDFTLTISSVQAEDLAVYYCQNDYSYPLTFGAGTKLEIKRTVAAPSVFIFPPSDEQLKSGTASVVCLLNNFYPREAKVQWKVDNALQSGNSQESVTEQDSKDSTYSLSSTLTLSKADYEKHKVYACEVTHQGLSSPVTKSFNRGEC
heavy: EVQLLEQSGAELVRPGTSVKISCKASGYAFTNYWLGWVKQRPGHGLEWIGDIFPGSGNIHYNEKFKGKATLTADKSSSTAYMQLSSLTFEDSAVYFCARLRNWDEPMDYWGQGTTVTVSSASTKGPSVFPLAPSSKSTSGGTAALGCLVKDYFPEPVTVSWNSGALTSGVHTFPAVLQSSGLYSLSSVVTVPSSSLGTQTYICNVNHKPSNTKVDKKVEPKSCDKTHTCPPCPAPELLGGPSVFLFPPKPKDTLMISRTPEVTCVVVDVSHEDPEVKFNWYVDGVEVHNAKTKPREEQYNSTYRVVSVLTVLHQDWLNGKEYKCKVSNKALPAPIEKTISKAKGQPREPQVYTLPPSRDELTKNQVSLWCLVKGFYPSDIAVEWESNGQPENNYDTTPPVLDSDGSFFLYSDLTVDKSRWQQGNVFSCSVMHEALHNHYTQKSLSLSPGK
chain: not shown
notes: YBODY format; also called bispecific antibody M701A
B2: M701K (bispecific antibody, human IgG1, kappa)
light: B1 light
heavy: EVQLLEQSGAELVRPGTSVKISCKASGYAFTNYWLGWVKQRPGHGLEWIGDIFPGSGNIHYNEKFKGKATLTADKSSSTAYMQLSSLTFEDSAVYFCARLRNWDEPMDYWGQGTTVTVSSASTKGPSVFPLAPSSKSTSGGTAALGCLVKDYFPEPVTVSWNSGALTSGVHTFPAVLQSSGLYSLSSVVTVPSSSLGTQTYICNVNHKPSNTKVDKKVEPKSCDKTHTCPPCPAPPVAGPSVFLFPPKPKDTLMISRTPEVTCVVVDVSHEAPEVQFNWYVDGVEVHNAKTKPREEQFNSTFRVVSVLTVVHQDWLNGKEYKCKVSNKGLPAPIEKTISKTKGQPREPQVYTLPPCRDELTKNQVSLWCLVKGFYPSDIAVEWESNGQPENNYKTTPPVLDSDGSFFLYSKLTVDKSRWQQGNVFSCSVMHEALHNHYTQKSLSLSPGK
chain: QVQLVESGGGVVQPGRSLRLSCAASGFTFSTYAMNWVRQAPGKGLEWVARIRSKYNNYATYYADSVKDRFTISRDDSKNTLYLQMNSLRAEDTAVYYCARHGNFGNSYVSWFAYWGQGTLVTVSSGGGGSGGGGSGGGGSQTVVTQEPSLTVSPGGTVTLTCRSSTGAVTTSNYANWVQQKPGQAPRGLIGGTNKRAPGVPARFSGSLLGGKAALTLSGVQPEDEAEYYCALWYSNLWVFGGGTKVEIKGAAAEPKSCDKTHTCPPCPAPPVAGPSVFLFPPKPKDTLMISRTPEVTCVVVDVSHEAPEVQFNWYVDGVEVHNAKTKPREEQFNSTFRVVSVLTVVHQDWLNGKEYKCKVSNKGLPAPIEKTISKTKGQPREPQVCTLPPSRDELTKNQVSLSCAVKGFYPSDIAVEWESNGQPENNYKTTPPVLDSDGSFFLVSKLTVDKSRWQQGNVFSCSVMHEALHNHYTQKSLSLSPGK
notes: YBODY format; also called bispecific antibody M701K
B3: M701B (bispecific antibody, human IgG1, kappa)
light: B1 light
heavy: B1 heavy
chain: QVQLVESGGGVVQPGRSLRLSCAASGFTFSTYAMNWVRQAPGKGLEWVARIRSKYNNYATYYADSVKDRFTISRDDSKNTLYLQMNSLRAEDTAVYYCARHGNFGNSYVSWFAYWGQGTLVTVSSGGGGSGGGGSGGGGSQTVVTQEPSLTVSPGGTVTLTCRSSTGAVTTSNYANWVQQKPGQAPRGLIGGTNKRAPGVPARFSGSLLGGKAALTLSGVQPEDEAEYYCALWYSNLWVFGGGTKVEIKGAAAEPKSCDKTHTCPPCPAPELLGGPSVFLFPPKPKDTLMISRTPEVTCVVVDVSHEDPEVKFNWYVDGVEVHNAKTKPREEQYNSTYRVVSVLTVLHQDWLNGKEYKCKVSNKALPAPIEKTISKAKGQPREPQVYTLPPSRDELTKNQVSLTCRVKGFYPSDIAVEWESNGQPENNYKTTPPVLKSDGSFFLASKLTVDKSRWQQGNVFSCSVMHEALHNHYTQKSLSLSPGK
notes: YBODY format; also called bispecific antibody M701B

Experiments:
[1] = biological target: CD3 on Jurkat cells; experiment: cell-based or functional assay
[2] = biological target: T1, human EpCAM on the cell surface; experiment: cell-based or functional assay
[3] = biological target: T2, human EpCAM antigen (SB, Cat: …); experiment: SPR (Biacore T200), antigen amine-coupled on CM5, antibody as analyte, 1:1 fit; D14 sample after 14 days at 40 C
[4] = biological target: CD3 on Jurkat cells; experiment: cell-based or functional assay; remark: listed apart in the source
[5] = biological target: T1, human EpCAM on the cell surface; experiment: cell-based or functional assay; remark: listed apart in the source
[6] = biological target: T1, human EpCAM on the cell surface; experiment: flow cytometry (FACS) on HCT116 cells, PE anti-human IgG Fc detection
[7] = biological target: T2, human EpCAM antigen (SB, Cat: …); experiment: SPR (Biacore T200), antigen amine-coupled on CM5, antibody as analyte, 1:1 fit; D0 sample
[8] = biological target: T3, human CD3 antigen (SB, Cat: CT038-H2508H) (human, UniProt P07766 23-126; P04234 22-105); experiment: SPR (Biacore T200), CD3 antigen amine-coupled on CM5, antibody as analyte, 1:1 fit
[9] = biological target: T3, human CD3 antigen (SB, Cat: …); experiment: SPR (Biacore T200), antigen amine-coupled on CM5, antibody as analyte, 1:1 fit; D14 sample after 14 days at 40 C
[10] = biological target: T3, human CD3 antigen (SB, Cat: …); experiment: SPR (Biacore T200), antigen amine-coupled on CM5, antibody as analyte, 1:1 fit; D0 sample

| Binder | cell bridging of HCT116 and Jurkat cells (CFSE/PKH26 double-positive cells, flow cytometry) [1] | cell bridging of HCT116 and Jurkat cells (CFSE/PKH26 double-positive cells, flow cytometry) [2] | Kd [3] | EC50 (read off the curve), cell bridging of HCT116 and Jurkat [panel C] [4] | EC50 (read off the curve), cell bridging of HCT116 and Jurkat [panel C] [5] | EC50 [6] | Kd [7] | Kd [8] | Kd [9] | Kd [10] |
| --- | --- | --- | --- | --- | --- | --- | --- | --- | --- | --- |
| B1 | ~40 % of the total PKH26-positive cells | ~40 % of the total PKH26-positive cells | 17.3 nM | ~10 ng/mL | ~10 ng/mL | 3.56 nM | 17.1 nM |  |  |  |
| B2 |  |  | 22.6 nM |  |  | 5.65 nM | 21.1 nM | 28.8 nM | 30.6 nM | 28.8 nM |
| B3 | ~40 % of the total PKH26-positive cells | ~40 % of the total PKH26-positive cells | 22.6 nM | ~10 ng/mL | ~10 ng/mL | 3.72 nM | 20 nM | 28.3 nM | 31.5 nM | 28.3 nM |
